Results as given in PMC9168760, “A novel AMPK activator shows therapeutic potential in hepatocellular carcinoma by suppressing HIF1α‐mediated aerobic glycolysis” (Molecular Oncology, 2022).

Molecular target: T1, hypoxia‐inducible factor 1‐alpha (human (endogenous in PLC5), UniProt Q16665 1-826)
T1 construct: HIF1α, endogenous protein of human HCC cells, immunoprecipitated or blotted with HIF1α antibodies; also called HIF1α
Experiment: co-IP; cells treated with DMSO or SCT‐1015; immunoprecipitation with HIF1α antibodies, blot for PHD3; 400 μg whole‐cell extract, 4 μg antibody overnight at 4 °C, protein A/G magnetic beads
Settings: partners not purified

T1 sequence (Q16665 whole entry): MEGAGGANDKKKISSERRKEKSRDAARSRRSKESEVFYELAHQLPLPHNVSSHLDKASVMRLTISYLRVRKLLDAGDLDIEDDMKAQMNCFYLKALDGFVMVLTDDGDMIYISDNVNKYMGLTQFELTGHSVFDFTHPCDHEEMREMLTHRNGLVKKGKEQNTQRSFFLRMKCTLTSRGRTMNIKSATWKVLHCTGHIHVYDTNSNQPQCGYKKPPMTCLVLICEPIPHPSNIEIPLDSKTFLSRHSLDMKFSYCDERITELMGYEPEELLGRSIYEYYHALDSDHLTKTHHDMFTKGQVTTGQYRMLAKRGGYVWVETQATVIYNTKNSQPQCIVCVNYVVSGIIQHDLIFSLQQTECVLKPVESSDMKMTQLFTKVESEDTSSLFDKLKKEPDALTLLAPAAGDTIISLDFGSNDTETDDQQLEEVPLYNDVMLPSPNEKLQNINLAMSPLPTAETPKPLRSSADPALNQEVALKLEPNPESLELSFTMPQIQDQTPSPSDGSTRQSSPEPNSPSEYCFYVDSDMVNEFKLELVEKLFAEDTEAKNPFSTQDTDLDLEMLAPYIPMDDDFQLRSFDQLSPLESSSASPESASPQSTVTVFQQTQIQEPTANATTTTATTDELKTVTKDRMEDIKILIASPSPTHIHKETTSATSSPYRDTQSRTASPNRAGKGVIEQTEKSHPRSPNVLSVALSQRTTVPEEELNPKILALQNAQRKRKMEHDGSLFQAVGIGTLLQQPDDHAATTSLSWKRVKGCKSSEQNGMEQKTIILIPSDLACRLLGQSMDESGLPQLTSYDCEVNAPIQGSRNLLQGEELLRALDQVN

B1: prolyl hydroxylase 3 (enzyme, human (endogenous in HCC cells), UniProt Q9H6Z9 1-239, looked up)
chain: MPLGHIMRLDLEKIALEYIVPCLHEVGFCYLDNFLGEVVGDCVLERVKQLHCTGALRDGQLAGPRAGVSKRHLRGDQITWIGGNEEGCEAISFLLSLIDRLVLYCGSRLGKYYVKERSKAMVACYPGNGTGYVRHVDNPNGDGRCITCIYYLNKNWDAKLHGGILRIFPEGKSFIADVEPIFDRLLFFWSDRRNPHEVQPSYATRYAMTVWYFDAEERAEAKKKFRNLTRKTESALTED
notes: PHD3, endogenous protein detected with the PHD3 antibody (Abcam ab30782) in HIF1α immunoprecipitates; also called PHD3; PHD
  fold change of the ratio PHD3/HIF1α in the HIF1α immunoprecipitate, SCT‐1015 against DMSO: 1.6 fold
